From article PMC9993454 come the findings set out here.

For the experiment, the target named is CD16a on NK cells of cynomolgus monkey peripheral blood (cynomolgus monkey (endogenous on NK cells of peripheral blood)) (UniProt Q8SPW2). As to the kind of experiment: flow cytometry on cells; cynomolgus monkeys given HpmAb1/D1632 (0.5-20 mg/kg s.c., day 0) or IVIG (1 g/kg i.v., days 0 and 1) and anti-platelet antibody on day 1; blood NK cells (CD45+CD14-CD159a+) stained with Fc-competing anti-CD16 3G8 (unoccupied CD16a) and non-competing DJ130c (all CD16a); free ratio and receptor occupancy (RO) against baseline (day 0). On the technique in general: In flow cytometry, cells or beads pass a laser one at a time.
UniProt Q8SPW2, sequence (Q8SPW2 17-254): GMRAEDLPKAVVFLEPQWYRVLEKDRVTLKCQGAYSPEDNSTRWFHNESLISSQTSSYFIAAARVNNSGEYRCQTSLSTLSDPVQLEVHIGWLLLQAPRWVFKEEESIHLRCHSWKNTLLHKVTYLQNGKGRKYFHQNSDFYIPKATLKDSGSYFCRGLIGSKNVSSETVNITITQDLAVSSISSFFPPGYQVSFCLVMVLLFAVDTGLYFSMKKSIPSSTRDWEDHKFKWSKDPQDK

With “Intravenous immunoglobulin (IVIG) (antibody)”, the free ratio (unoccupied CD16a on NK cells, % of baseline) on day 1 was found to be 40.3%.
